According to patent publication US20040043438A1:
Changes are numbered by the printed parent chain.

B1: Mutant Bet v 1 (2628) (protein)
chain: GVFNVETETTSVIPAARLFKAFILDGDNLFPKVAPQAISSVENISGNGGPGTIKKISFPEGFPFNYVKDRVDEVDHTNFKYNYSVIEGGPIGDTLESISNEIKIVATPDGGSILKISNKYHTKGDHEVKAEQVEASKEMGETLLRAVESYLLAHSDAYN
B2: Bet v 1 (Asn28Thr, Lys32Gln, Glu45Ser, Pro108Gly) mutant (protein)
chain: B1 chain with V5Y, N28T, K32Q, N65K, S97K, P108G, E134K

How the values were obtained:
[1] = target: specific IgE bound to the surface of human basophils from birch pollen allergic patients; assay: cell-based or functional assay
[2] = target: serum IgE from a pool of birch allergic patients; assay: fluid-phase IgE-inhibition assay; competes with biotinylated Bet v 1.2801 for pooled serum IgE
[3] = target: serum IgE from a pool of birch allergic patients; assay: fluid-phase IgE-inhibition assay; competes with biotinylated Bet v 1 no. 2801 for pooled serum IgE

Binder	histamine release in human basophil: reduction of potency against Bet v 1.2801 [1]	factor by which the affinity is lowered against Bet v 1.2801 [2]	amount to reach 80% inhibition [3]	factor of decrease against recombinant Bet v 1 (at 80% inhibition) [3]	factor of decrease in affinity against recombinant Bet v 1 (at 50% inhibition) [3]
B1	3 to 10 fold	3 to 4 fold	–	–	–
B2	–	–	400 ng	20 fold	5 fold
